From patent publication US5237051A (Vanderbilt University, priority 1990, dated 1993) come the findings set out here.

The target of the test is T1, GC-C (Rattus norvegicus, UniProt P23897).
T1 construct: expressed in transfected cells; host or cells: COS-7
T1 sequence (P23897 23-1072): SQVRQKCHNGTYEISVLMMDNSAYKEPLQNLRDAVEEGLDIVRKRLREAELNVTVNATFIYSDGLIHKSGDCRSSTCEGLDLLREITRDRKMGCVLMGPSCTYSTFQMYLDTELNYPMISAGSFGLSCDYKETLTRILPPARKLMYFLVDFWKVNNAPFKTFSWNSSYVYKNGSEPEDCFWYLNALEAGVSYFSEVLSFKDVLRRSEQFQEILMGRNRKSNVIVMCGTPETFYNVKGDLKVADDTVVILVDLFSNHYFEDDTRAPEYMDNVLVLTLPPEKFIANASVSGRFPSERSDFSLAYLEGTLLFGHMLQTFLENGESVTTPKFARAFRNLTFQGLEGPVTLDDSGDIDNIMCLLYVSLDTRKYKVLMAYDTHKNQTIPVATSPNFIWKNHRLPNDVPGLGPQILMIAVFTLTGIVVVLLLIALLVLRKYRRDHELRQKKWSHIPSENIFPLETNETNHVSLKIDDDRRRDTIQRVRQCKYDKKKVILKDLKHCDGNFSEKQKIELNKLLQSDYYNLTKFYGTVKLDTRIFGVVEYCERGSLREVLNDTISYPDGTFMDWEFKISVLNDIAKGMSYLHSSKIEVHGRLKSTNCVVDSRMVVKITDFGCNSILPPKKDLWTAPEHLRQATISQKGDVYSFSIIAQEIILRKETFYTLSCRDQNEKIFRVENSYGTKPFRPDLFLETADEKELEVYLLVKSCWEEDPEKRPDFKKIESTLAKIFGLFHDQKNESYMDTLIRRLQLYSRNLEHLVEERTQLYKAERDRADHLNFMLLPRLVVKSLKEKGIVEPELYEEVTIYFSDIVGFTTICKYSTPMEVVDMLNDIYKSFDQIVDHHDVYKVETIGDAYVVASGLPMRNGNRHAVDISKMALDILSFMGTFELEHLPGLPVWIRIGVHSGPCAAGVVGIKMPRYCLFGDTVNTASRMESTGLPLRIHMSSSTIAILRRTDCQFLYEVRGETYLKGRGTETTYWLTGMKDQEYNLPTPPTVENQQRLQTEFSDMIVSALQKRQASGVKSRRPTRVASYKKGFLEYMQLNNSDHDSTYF
The format is cell-based.

As for C-type natriuretic peptide, the “cyclic GMP levels after stimulation of transfected cells (in words)” value (“cyclic GMP levels after stimulation” below) is reported as “did not increase cyclic GMP levels above background” and the “stimulation of GC-C (in words)” value is listed as “failed to stimulate”.

Consider atrial natriuretic peptide, for which the “cyclic GMP levels after stimulation” value was “did not increase cyclic GMP levels above background” and the “stimulation of GC-C (in words)” value was “failed to stimulate”.

On to brain natriuretic peptide, for which the “cyclic GMP levels after stimulation” value is listed as “did not increase cyclic GMP levels above background” and the “stimulation of GC-C (in words)” value is listed as “failed to stimulate”.
